Test results taken from patent publication US20260116963A1.

Experiments:
[1] = target: HIS-tagged human FcRn (human) (UniProt P55899); experiment: SPR (Biacore 8K+), antibody captured on anti-human Fab CM4 chip, HIS-tagged human FcRn 9.8-5000 nM as analyte, pH 6.0, 25 C, steady-state fit
[2] = target: HIS-tagged human IL-13 (human) (UniProt P35225); experiment: BLI in-tandem epitope binning (Octet RH96): HIS-tagged human IL-13 on anti-penta-HIS biosensors, saturated with 200 nM Ref1, then 200 nM isotype-hIgG1-YTE as competing antibody; shaded cell (non-binding, <=0.1 nm)
HIS-tagged human IL-13 (human), sequence (P35225 other isoform, or with tags, fused parts or gaps limits assumed): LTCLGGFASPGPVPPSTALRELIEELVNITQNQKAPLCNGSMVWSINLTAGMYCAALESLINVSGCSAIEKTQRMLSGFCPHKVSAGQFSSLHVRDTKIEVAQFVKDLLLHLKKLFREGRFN

[3] = target: HIS-tagged human IL-13 (human) (UniProt P35225); experiment: BLI in-tandem epitope binning (Octet RH96): HIS-tagged human IL-13 on anti-penta-HIS biosensors, saturated with 200 nM tralokinumab-hIgG1-YTE, then 200 nM isotype-hIgG1-YTE as competing antibody; shaded cell (non-binding, <=0.1 nm)
[4] = target: HIS-tagged human IL-13 (human) (UniProt P35225); experiment: BLI in-tandem epitope binning (Octet RH96): HIS-tagged human IL-13 on anti-penta-HIS biosensors, saturated with 200 nM AbG, then 200 nM isotype-hIgG1-YTE as competing antibody; shaded cell (non-binding, <=0.1 nm)
[5] = target: HIS-tagged human IL-13 (human) (UniProt P35225); experiment: BLI in-tandem epitope binning (Octet RH96): HIS-tagged human IL-13 on anti-penta-HIS biosensors, first exposed to 200 nM isotype-hIgG1-YTE as saturating antibody, then 200 nM isotype-hIgG1-YTE as competing antibody; shaded cell (non-binding, <=0.1 nm)

Kd [1]	BLI response of the competing antibody [2]	BLI response of the competing antibody [3]	BLI response of the competing antibody [4]	BLI response of the competing antibody [5]	Substance
1160 nM	–	–	–	–	isotype-hIgG1 (antibody)
155 nM	-0.036 nm	-0.023 nm	-0.018 nm	0 nm	isotype-hIgG1-YTE (antibody)
156 nM	–	–	–	–	isotype-hIgG1-YTE-TM (antibody)
1190 nM	–	–	–	–	isotype-hIgG4 (antibody)
